Measurements taken from PMC11900225, “Deletions in Glial Fibrillary Acidic Protein Leading to Alterations in Intermediate Filament Assembly and Network Formation” (International Journal of Molecular Sciences, 2025).

How the values were obtained:
[1] = target: the molecule itself; test: low-speed sedimentation assay of assembled filaments; assembly mixture centrifuged at 1000 x g for 5 min at room temperature; supernatant and pellet by SDS-PAGE and Coomassie; monitors filament aggregation
[2] = target: T1, Glial fibrillary acidic protein (GFAP), full-length wild type, human GFAPα (human, UniProt P14136-1 1-432); test: high-speed sedimentation assay of assembled filaments; assembly mixture layered on a 0.85 M sucrose cushion in assembly buffer, 80,000 x g, 20 min, 20 °C; supernatant and pellet by SDS-PAGE and Coomassie; efficiency is the percent of total protein in the pellet; settings: both partners purified
T1 construct: Glial fibrillary acidic protein, major isoform GFAPα, human, full length, cDNA in pET23b; Expressed from pET23b; also called WT GFAP; WT

[3] = target: the molecule itself; test: as above
[4] = target: T1, Glial fibrillary acidic protein (GFAP), …; test: in vitro filament assembly with negative-stain transmission electron microscopy; 0.2 mg/mL GFAP dialysed stepwise out of 6 M urea into low-salt buffer, then into assembly buffer (10 mM Tris-HCl, 50 mM NaCl, 1 mM DTT, pH 7) at 34–36 °C for 12–16 h; stained with 1% uranyl acetate; mutants alone or coassembled with WT at stated proportions; settings: both partners purified

binding result [2] | binding result [4] | Binder | percent in the pellet (low-speed sedimentation) [1] | binding result [3]
– | – | CΔ121 GFAP (domain or fragment, human, UniProt P14136 1-311, looked up, Human GFAPα, the initial 311 residues; truncation caused by a nonsense Alexander disease mutation; Expressed from pET23b; no tag named) MERRRITSAARRSYVSSGEMMVGGLAPGRRLGPGTRLSLARMPPPLPTRVDFSLAGALNAGFKETRASERAEMMELNDRFASYIEKVRFLEQQNKALAAELNQLRAKEPTKLADVYQAELRELRLRLDQLTANSARLEVERDNLAQDLATVRQKLQDETNLRLEAENNLAAYRQEADEATLARLDLERKIESLEEEIRFLRKIHEEEVRELQEQLARQQVHVELDVAKPDLTAALKEIRTQYEAMASSNMHEAEEWYRSKFADLTDAAARNAELLRQAKHEANDYRRQLQSLTCDLESLRGTNESLERQMR | 68% | –
– | – | CΔ207 GFAP (domain or fragment, human, UniProt P14136 1-225, looked up, Human GFAPα, the first 225 amino acids; N-terminal fragment produced by caspase-6 cleavage at 222VELD225; Expressed from pET23b; no tag named) MERRRITSAARRSYVSSGEMMVGGLAPGRRLGPGTRLSLARMPPPLPTRVDFSLAGALNAGFKETRASERAEMMELNDRFASYIEKVRFLEQQNKALAAELNQLRAKEPTKLADVYQAELRELRLRLDQLTANSARLEVERDNLAQDLATVRQKLQDETNLRLEAENNLAAYRQEADEATLARLDLERKIESLEEEIRFLRKIHEEEVRELQEQLARQQVHVELD | 91% | –
binds | – | ΔEx5 GFAP (natural protein, Human GFAPα with an in-frame deletion of 42 residues, amino acids 261-302 (skipping of exon 5, an Alexander disease splice site mutation); Expressed from pET23b; no tag named; also called ΔEx5 mutant; ΔEx5 deletion mutant) not shown | 69% | –
– | binds | ΔEx4 GFAP (natural protein, Expressed from pET23b; no tag named; also called ΔEx4 mutant) not shown | – | binds
– | – | CΔ92 GFAP (domain or fragment, human, UniProt P14136 1-340, looked up, Human GFAPα with 92 residues deleted from the C-terminus (CΔX is the number of residues deleted from the C-terminus); fragment potentially generated by calpain cleavage at 337SLKD340; Expressed from pET23b; no tag named) MERRRITSAARRSYVSSGEMMVGGLAPGRRLGPGTRLSLARMPPPLPTRVDFSLAGALNAGFKETRASERAEMMELNDRFASYIEKVRFLEQQNKALAAELNQLRAKEPTKLADVYQAELRELRLRLDQLTANSARLEVERDNLAQDLATVRQKLQDETNLRLEAENNLAAYRQEADEATLARLDLERKIESLEEEIRFLRKIHEEEVRELQEQLARQQVHVELDVAKPDLTAALKEIRTQYEAMASSNMHEAEEWYRSKFADLTDAAARNAELLRQAKHEANDYRRQLQSLTCDLESLRGTNESLERQMREQEERHVREAASYQEALARLEEEGQSLKD | – | binds
